Key:
pro-uPA wild type;uPAR [1] = target: T1, pro-uPA wild type;uPAR (Homo sapiens;Homo sapiens, UniProt P00749;Q03405 21-431;23-305, |); assay: SPR competition; 200 nM control RNA; no significant effect on vitronectin binding; SPR: HBS (20 mM HEPES, 140 mM NaCl, pH 7.4), 2 mM MgCl2, 0.1% BSA, 0.005% Tween 20, temperature not stated; SAXS: HBS, 2 mM MgCl2, 25 C; conditions: protein: recombinant;recombinant; tags: ;; copies: 1;1
pro-uPA wild type [2] = target: T2, pro-uPA wild type (Homo sapiens, UniProt P00749 21-431); assay: SPR competition; up to 200 nM control RNA; no effect on pro-uPA binding to LRP-1A; SPR: HBS (20 mM HEPES, 140 mM NaCl, pH 7.4), 2 mM MgCl2, 0.1% BSA, 0.005% Tween 20, temperature not stated; SAXS: HBS, 2 mM MgCl2, 25 C; conditions: protein: recombinant
pro-uPA Y284/127A = pro-uPA Y284/127A (Homo sapiens, UniProt P00749 21-431, Y304A); assay: SPR competition; still inhibits uPAR binding (data not shown); SPR: HBS (20 mM HEPES, 140 mM NaCl, pH 7.4), 2 mM MgCl2, 0.1% BSA, 0.005% Tween 20, temperature not stated; SAXS: HBS, 2 mM MgCl2, 25 C; conditions: protein: recombinant; 79 nt
pro-uPA R391/231A = pro-uPA R391/231A (Homo sapiens, UniProt P00749 21-431, R411A); assay: as above; conditions: protein: recombinant; 79 nt
ATF of uPA = ATF of uPA (UniProt P00749 21-151); assay: SPR competition; inhibition of 4 nM ATF binding to immobilized uPAR; SPR: HBS (20 mM HEPES, 140 mM NaCl, pH 7.4), 2 mM MgCl2, 0.1% BSA, 0.005% Tween 20, temperature not stated; SAXS: HBS, 2 mM MgCl2, 25 C; conditions: protein: commercial; 79 nt
GFD of uPA = target: T3, GFD of uPA (Homo sapiens, UniProt P00749 24-63); assay: SPR competition; 50 nM aptamer; no inhibition of GFD binding to uPAR; SPR: HBS (20 mM HEPES, 140 mM NaCl, pH 7.4), 2 mM MgCl2, 0.1% BSA, 0.005% Tween 20, temperature not stated; SAXS: HBS, 2 mM MgCl2, 25 C; conditions: protein: recombinant; 79 nt
T3 chain: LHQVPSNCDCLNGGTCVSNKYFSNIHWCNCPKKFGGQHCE

pro-uPA wild type [3] = target: T2, pro-uPA wild type; assay: SPR competition; inhibition of 4 nM pro-uPA binding to immobilized uPAR; SPR: HBS (20 mM HEPES, 140 mM NaCl, pH 7.4), 2 mM MgCl2, 0.1% BSA, 0.005% Tween 20, temperature not stated; SAXS: HBS, 2 mM MgCl2, 25 C; conditions: protein: recombinant; 79 nt
pro-uPA wild type;uPAR [4] = target: T1, pro-uPA wild type;uPAR; assay: SPR; 100 nM aptamer on captured pro-uPA:uPAR; SPR: HBS (20 mM HEPES, 140 mM NaCl, pH 7.4), 2 mM MgCl2, 0.1% BSA, 0.005% Tween 20, temperature not stated; SAXS: HBS, 2 mM MgCl2, 25 C; conditions: protein: recombinant;recombinant; tags: ;; copies: 1;1
pro-uPA wild type [5] = target: T2, pro-uPA wild type; assay: competition, 125I-pro-uPA cell binding; U937 cells, 1 h, 4 C; effect lost on prolonged incubation; SPR: HBS (20 mM HEPES, 140 mM NaCl, pH 7.4), 2 mM MgCl2, 0.1% BSA, 0.005% Tween 20, temperature not stated; SAXS: HBS, 2 mM MgCl2, 25 C; conditions: protein: recombinant

T1 sequence (Q03405 23-305, chain 2 of 2, other chains not shown): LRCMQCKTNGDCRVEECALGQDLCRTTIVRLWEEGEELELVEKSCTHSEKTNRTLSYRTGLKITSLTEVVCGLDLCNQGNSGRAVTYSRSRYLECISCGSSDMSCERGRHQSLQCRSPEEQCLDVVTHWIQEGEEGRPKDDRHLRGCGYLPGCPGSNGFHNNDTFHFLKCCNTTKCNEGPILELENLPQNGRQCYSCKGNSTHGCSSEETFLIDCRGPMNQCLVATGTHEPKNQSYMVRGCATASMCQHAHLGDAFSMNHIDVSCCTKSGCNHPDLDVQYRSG

B1: control RNA (XNA)
RNA: GGGGCCACCAACGACAUUAACUCACGUUGCAACUAAUACGCUGAGUGGAAACCGUUGAUAUAAAUAGUGCCCAUGGAUC
modifications: 2'-fluoro pyrimidines (2'-F-C, 2'-F-U)
Does B1 bind (pro-uPA wild type;uPAR [1])?
Result: no binding

Does B1 bind (pro-uPA wild type [2])?
Result: no binding

B2: upanap-12 (XNA)
RNA: GGGGCCACCAACGACAUUUGCGACUGUUAUAACCUAACAGCGACGUAAAGAUAGUUGAUAUAAAUAGUGCCCAUGGAUC
modifications: 2'-fluoro pyrimidines (2'-F-C, 2'-F-U)
Does B2 bind (pro-uPA Y284/127A)?
Result: binds

Does B2 bind (pro-uPA R391/231A)?
Result: binds

What about the IC50 (ATF of uPA) of the same binder?
The IC50 was 1.8 ± 0.2 nM.

Does B2 bind (GFD of uPA)?
Result: no binding

What about the IC50 (pro-uPA wild type [3]) of the same binder?
The IC50 was 2.2 ± 0.1 nM.

B3: upanap-126 (XNA)
RNA: GGGGCCACCAACGACAUUCAUUCGCACGCUGUGUGGGGAUUAGUCCCGAUGUUGUUGAUAUAAAUAGUGCCCAUGGAUC
modifications: 2'-fluoro pyrimidines (2'-F-C, 2'-F-U)
What does the source list for B3?
binding result (pro-uPA wild type;uPAR [4]): binds; IC50 (pro-uPA wild type [5]): ~500 nM
